Substitutions are numbered along the chain they refer to. “And” between values parts separate entries of the source, which are not always exact repeats. Identical values can stand only once.
Legend:
[1] = biological target: T1, human CD73 on cells (Calu6, NCI-H292, SK-MEL-24, human tumor cell lines, human B and T cells) (human, UniProt P21589 27-549); test: cell-based or functional assay
T1 sequence: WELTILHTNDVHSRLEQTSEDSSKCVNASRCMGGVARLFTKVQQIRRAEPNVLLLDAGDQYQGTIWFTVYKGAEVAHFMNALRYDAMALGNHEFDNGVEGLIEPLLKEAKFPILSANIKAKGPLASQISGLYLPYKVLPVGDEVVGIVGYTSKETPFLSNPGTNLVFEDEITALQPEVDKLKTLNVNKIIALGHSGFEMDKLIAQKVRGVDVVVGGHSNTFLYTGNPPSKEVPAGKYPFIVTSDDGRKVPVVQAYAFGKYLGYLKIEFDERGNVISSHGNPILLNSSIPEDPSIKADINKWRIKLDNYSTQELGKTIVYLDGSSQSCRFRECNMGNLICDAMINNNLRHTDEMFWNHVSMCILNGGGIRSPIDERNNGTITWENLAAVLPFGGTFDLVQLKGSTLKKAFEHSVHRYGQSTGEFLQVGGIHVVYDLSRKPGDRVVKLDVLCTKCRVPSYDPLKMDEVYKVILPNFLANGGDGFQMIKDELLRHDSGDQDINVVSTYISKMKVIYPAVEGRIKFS

[2] = biological target: T2, rhCD73 bound to his-tag magnet beads (human, UniProt P21589 27-549, limits assumed); test: cell-based or functional assay
T2 sequence: T1 sequence

[3] = biological target: T1, human CD73 on cells (Calu6, NCI-H292, …); test: binding titration on Calu6 cells, average of 2-6 experiments
Method: (§1) Titration binding curves were produced with CD73 antibodies on Calu6 (CD73 endogenous expressors; human pulmonary adenocarcinoma cell line), DMS114 (CD73 negative; human small cell lung cancer cell line), CHO-cynoCD73 (cynoCD73-transfected) and CHO-K1 (cynoCD73 negative), cells using Alexa Fluor® 647 Goat Anti-Human IgG (H+L) as a secondary antibody, Invitrogen Cat#A-21445, using the following method: 100000 cells were plated in 100 uL PBS+2% FBS per well and blocked for 20 min. Using a U-bottom 96-deep well plate, volumes of antibody and PBS+2% FBS were combined as dictated by Table 12 below.
(§2) An 8-point serial dilution was performed by diluting a sixth of the volume (90 uL) into 450 μL PBS+2% FBS. The cell plate was spun down for 5 minutes at 1500 rpm. 100 uL of diluted antibody was added per well of the plate. 100 uL PBS+2% FBS were added to all other wells. […] The plates were spun down at 1500 rpm for 5 min and washed in 200 uL PBS +2% FBS per well. The plates were washed again, resuspended in 200 uL 2% FBS in PBS per well and the samples were run.

[4] = biological target: T3, N-terminal domain of hCD73 (residues 26-336 of human CD73), His-tagged (human, UniProt P21589 26-336); test: SPR, mAb captured on protein A
T3 construct: also called N-hCD73; N-hCD73-his
T3 sequence: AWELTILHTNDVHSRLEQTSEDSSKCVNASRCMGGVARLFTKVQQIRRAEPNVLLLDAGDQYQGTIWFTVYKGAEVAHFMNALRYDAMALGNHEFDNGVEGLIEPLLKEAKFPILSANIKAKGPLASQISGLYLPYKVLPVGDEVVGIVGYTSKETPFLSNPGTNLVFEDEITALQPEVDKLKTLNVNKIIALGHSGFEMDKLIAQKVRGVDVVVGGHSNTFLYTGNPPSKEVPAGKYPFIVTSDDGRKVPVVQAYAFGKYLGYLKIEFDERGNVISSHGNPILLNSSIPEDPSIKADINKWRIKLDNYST
Method: For these experiments, protein A (Pierce) was immobilized to a density of 3000 — 4000 RU on flow cells 1-4 of a CM5 sensor chip (GE Healthcare) using standard ethyl(dimethylaminopropyl) carbodiimide (EDC)/N-hydroxysuccinimide (NHS) chemistry, with ethanolamine blocking, in a running buffer of 0.01 M HEPES pH 7.4, 0.15 M NaCl, 3 mM EDTA, 0.005% v/v tween 20. […] The running buffer for the kinetic experiments was 10 mM sodium phosphate, 130 mM sodium chloride, 0.05% tween 20, pH 7.1. The surfaces were regenerated after each cycle using two 30 s pulses of 10 mM glycine pH 1.5 at a flow rate of 30 μl/min. Sensogram data was double-referenced and then fitted to a 1:1 Langmuir model using Biacore T100 evaluation software v2.0.4, to determine the association rate constant (ka), the dissociation rate constant (kd), and the equilibrium dissociation constant (KD).

[5] = biological target: T1, human CD73 on cells (Calu6, NCI-H292, …); test: cell-based or functional assay; remark: listed apart in the source
[6] = biological target: T4, cynomolgus CD73 on transfected CHO cells (cynomolgus, UniProt P21589 27-549 (human entry)); test: flow cytometry, CHO-cynoCD73 cells, anti-human IgG secondary; column 'Kd (ng/mL)'
T4 construct: also called CHO-cynoCD73; cyno CD73 positive CHO cells
T4 chain: T1 sequence with M199T, T350A, V466I

[7] = biological target: T4, cynomolgus CD73 on transfected CHO cells; test: flow cytometry, CHO-cynoCD73 cells
Method: as §1, §2

[8] = biological target: T4, cynomolgus CD73 on transfected CHO cells; test: flow cytometry, CHO-cynoCD73 cells, anti-human IgG secondary (unstained 4.81, sec only 18.5)
[9] = biological target: T1, human CD73 on cells (Calu6, NCI-H292, …); test: cell-based or functional assay; remark: listed apart in the source
[10] = biological target: T1, human CD73 on cells (Calu6, NCI-H292, …); test: flow cytometry, Calu6 cells, anti-human IgG secondary (unstained -8.27, sec only 30.3)

B1: 5F8 (antibody, human IgG1, kappa, V domains shown)
VH: EVQLVESGGGLVQPGGSLRLSCAASGFTFSSYWMHWVRQAPGKGLVWVSRIISDGSSTGYADSVKGRFTISRDNAKNTLYLQMNSLRAEDTAVYYCAREFSSGWYFDYWGQGTLVTVSS
VL: AIQLTQSPSSLSASVGDRVTITCRASQGISSALAWYQQKPGKAPKLLIYDASSLESGVPSRFSGSGSGTDFTLTISSLQPEDFATYYCQQFSSYPRTFGQGTKVEIKR
notes: IgG1za from hybridoma; predominant light chain VK1, VK2 also expressed; also called 5F8-1
IC50 (nM), cAMP HTRF assay, Calu-6 with HEK293/A2AR cells [1]: 13.2 nM
Ymax, cAMP HTRF assay [1]: 80 % of 100 nM 11F11
EC50 (nM), inhibition of bead-bound rhCD73 enzymatic activity [2]: 5.76 nM
EC50 [3]: 11.7 nM
Kd [4]: 41 nM
koff [4]: 0.006 s⁻¹
kon [4]: 150000 M⁻¹ s⁻¹
EC50 Calu6 inhibition [5]: 8.1 nM
EC50 H292 inhibition [5]: 13.5 nM
EC50 SKMEL24 inhibition [5]: 110 nM

B2: 11F11 (antibody, human IgG2, kappa, V domains shown)
VH: QVQLVESGGGVVQPGRSLRLSCATSGFTFSNYGMHWVRQAPGKGLEWVAVILYDGSNKYYPDSVKGRFTISRDNSKNTLYLQMNSLRAEDTAVYYCARGGSSWYPDSFDIWGQGTMVTVSS
VL: DIQMTQSPSSLSASVGDRVTITCRASQGISSWLAWYQQKPEKAPKSLIYAASSLQSGVPSRFSGSGSGTDFTLTISSLQPEDFATYYCQQYNSYPLTFGGGTKVEIKR
notes: Human IgG2 from hybridoma
Kd [6]: 0.0207 µg/mL
Ymax, cAMP HTRF assay [1]: 76 % of 100 nM 11F11
EC50 (nM), inhibition of bead-bound rhCD73 enzymatic activity [2]: 3.98 nM
EC50 [7]: 0.58 nM
MFI at 0.07 ng/mL antibody [8]: 200
MFI at 0.43 ng/mL antibody [8]: 342
MFI at 2.57 ng/mL antibody [8]: 670
MFI at 15.43 ng/mL antibody [8]: 1150
MFI at 92.59 ng/mL antibody [8]: 1470
MFI at 555.56 ng/mL antibody [8]: 1640
MFI at 3333.33 ng/mL antibody [8]: 1990
MFI at 20000 ng/mL antibody [8]: 2660
Kd [4]: 1.6 nM and 0.56 nM
EC50 (nM), CD73 internalization, Calu6, 2 h [9]: 0.58 nM
Ymax, CD73 internalization, Calu6, 2 h [9]: 98 % of 100 nM 11F11
MFI at 0.07 ng/mL antibody [10]: 788
MFI at 0.43 ng/mL antibody [10]: 1290
MFI at 2.57 ng/mL antibody [10]: 2250
MFI at 15.43 ng/mL antibody [10]: 4830
MFI at 92.59 ng/mL antibody [10]: 12100
MFI at 555.56 ng/mL antibody [10]: 27400
MFI at 3333.33 ng/mL antibody [10]: 29700
MFI at 20000 ng/mL antibody [10]: 36600
EC50 Calu6 inhibition [5]: 0.7 nM
EC50 SKMEL24 inhibition [5]: 3.15 nM

B3: 7A11 (antibody, human IgG1, kappa, V domains shown)
VH: EVQLVESGGGLVQTGRSLRLSCAASGFTFDDYAMHWVRQAPGKGLEWVSDISWNSDIIGYADSVKGRFTISRDNAKNSLYLQMNSLRAEDTALYYCAKDIYGSGSSFFDYWGQGILVTVSS
VL: B2 VL with G28Y, N92H, L96P, G100Q, K103R, V104L
notes: IgG1za from hybridoma; also called 7A11-1
IC50 (nM), cAMP HTRF assay, Calu-6 with HEK293/A2AR cells [1]: 0.95 nM
Ymax, cAMP HTRF assay [1]: 45 % of 100 nM 11F11
EC50 (nM), inhibition of bead-bound rhCD73 enzymatic activity [2]: 2.86 nM
EC50 [3]: 0.35 nM
Kd [4]: 0.43 nM
koff [4]: 0.00038 s⁻¹
kon [4]: 880000 M⁻¹ s⁻¹
EC50 (nM), CD73 internalization, Calu6, 2 h [9]: 2.59 nM
Ymax, CD73 internalization, Calu6, 2 h [9]: 50 % of 100 nM 11F11
EC50 Calu6 inhibition [5]: 0.95 nM
EC50 H292 inhibition [5]: 1.31 nM
EC50 SKMEL24 inhibition [5]: 3.72 nM

B4: 11A6 (antibody, human IgG1, kappa, V domains shown)
VH: EVQLVESGGNLVQPGRSLRLSCAASGFTFDDYAMHWVRQAPGKGLEWVSGISWNNNDIGYADSVKGRFIISRDNAKNSLYLQMNSLRPEDTALYYCVKGYYVILTGLDYWGQGTPVTVSS
VL: B2 VL
notes: IgG1za from hybridoma; also called 11A6-1
IC50 (nM), cAMP HTRF assay, Calu-6 with HEK293/A2AR cells [1]: 4.87 nM
Ymax, cAMP HTRF assay [1]: 84 % of 100 nM 11F11
EC50 (nM), inhibition of bead-bound rhCD73 enzymatic activity [2]: 3.12 nM
EC50 [3]: 1.93 nM
Kd [4]: 140 nM
koff [4]: 0.0076 s⁻¹
kon [4]: 55000 M⁻¹ s⁻¹
EC50 Calu6 inhibition [5]: 2.21 nM
